Experimental data reported in the Human Domainome abundance scans (Beltran et al. 2025).

B1: Cold shock protein CspB, residues 1 to 66; numbered along this chain, P41016 (parent)
chain: MQRGKVKWFNNEKGYGFIEVEGGSDVFVHFTAIQGEGFKTLEEGQEVSFEIVQGNRGPQAANVVKL

Variants of: B1
Test: abundance fitness (aPCA) (normalised: wild type 0, dead -1); higher = more abundant; growth selection in yeast, the domain comes from the species named
Settings: Bacillus caldolyticus

Abundance fitness: each site, then its substitutions
K39: V -0.092, R -0.003, S -0.072, E -0.114, T -0.103, D -0.148, W -0.194, P -0.149, G -0.154
E36: G -0.004, S -0.007, M -0.085, R 0.006, P -0.017, Q 0.021, D -0.019, L -0.024, F -0.023, T -0.006, W -0.017, V -0.003, C -0.042, H -0.047, N -0.037
I33: C -0.127, K -0.456, M -0.144, L -0.082, Q -0.381, S -0.422, R -0.484, V -0.024, A -0.311, G -0.41, W -0.462, F -0.111, E -0.477, D -0.369, Y -0.527
E21: V 0.013, Y -0.022, H 0.027, T 0.014, F -0.052, K -0.017, Q -0.007, W -0.033, A 0.017, S -0.009, I 0.034, M -0.051, D -0.028, G 0.02
Q34: T -0.008, Y -0.073, I -0.169, P -0.062, V 0.048, L -0.02, C -0.071, K 0.01, W -0.049, N 0.053, H -0.123, S -0.003, G -0.005, D 0.079, F 0.052, R 0.001, M 0.006
H29: N -0.228, T -0.28, R -0.281, L -0.48, Y -0.149, I -0.538, S -0.345, Q -0.174, K -0.197, V -0.506, A -0.532, M -0.274
G22: C 0.02, E -0.013, I -0.027, Q -0.035, V -0.02, F -0.016, R -0.011, T 0.025, Y -0.063, S 0.011, L -0.012, W -0.019, M -0.01
V28: S -0.355, I -0.048, M -0.153, E -1.1, F -0.062, C 0.017, H -1.04, Y -0.27, D -0.912, G -0.638, N -0.999, R -0.993, P -0.693, A -0.1, T -0.05, W -0.675, Q -0.901, L -0.107
D25: W -0.26, P -0.093, A -0.113, K -0.093, V -0.141, F -0.251, Q -0.073, N -0.047, T -0.073, E -0.082, S -0.053, G -0.257, H -0.102, M -0.153, I -0.214, Y -0.231
F30: T -0.127, S -0.047, Y 0.011, W -0.026, I -0.087, C -0.091, M -0.169, D -0.188, L -0.103, P -0.227, A -0.035, N -0.07, Q -0.025, G -0.089, V -0.049, K -0.016, H -0.023
F27: I -0.208, N -0.335, S -0.212, M -0.169, E -0.183, Q -0.208, A -0.206, G -0.229, P -0.161, H -0.075, L -0.187, C -0.243, R -0.176, W -0.102, Y 0.003
V20: W 0.056, Q 0.046, Y -0.001, R -0.006, S -0.011, T 0.008
